Test results as given in article PMC9628201.

Target: SARS-CoV-2 WA.1 Spike-6P trimer (SARS-CoV-2 (WA.1))
Test: cryo-EM structure

Substance: SARS-CoV-2 WA.1 Spike-6P trimer
- stoichiometry N: 3
